Reference: patent US20060105320A1

Tests used:
[1] = target: NM (N-terminal and middle region of Sup35p), soluble / unpolymerized (Saccharomyces cerevisiae) (UniProt P05453); experiment: cell-based or functional assay
[2] = target: biotinylated NM^K184C seed (Saccharomyces cerevisiae) (UniProt P05453); experiment: capture of biotinylated seed on Streptavidin-coated Dynabeads, SDS wash, scintillation counting
Sequence of biotinylated NM^K184C seed (Saccharomyces cerevisiae) (P05453 1-253 K184C): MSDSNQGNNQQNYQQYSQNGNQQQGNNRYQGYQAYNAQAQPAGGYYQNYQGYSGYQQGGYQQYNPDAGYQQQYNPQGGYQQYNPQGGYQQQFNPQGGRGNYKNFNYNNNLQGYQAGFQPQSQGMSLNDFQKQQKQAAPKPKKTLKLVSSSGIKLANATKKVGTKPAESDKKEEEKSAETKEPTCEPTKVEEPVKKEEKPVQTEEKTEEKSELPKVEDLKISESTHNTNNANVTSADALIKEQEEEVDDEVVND

Sequence of NM (N-terminal and middle region of Sup35p), soluble / unpolymerized (Saccharomyces cerevisiae) (P05453 1-253): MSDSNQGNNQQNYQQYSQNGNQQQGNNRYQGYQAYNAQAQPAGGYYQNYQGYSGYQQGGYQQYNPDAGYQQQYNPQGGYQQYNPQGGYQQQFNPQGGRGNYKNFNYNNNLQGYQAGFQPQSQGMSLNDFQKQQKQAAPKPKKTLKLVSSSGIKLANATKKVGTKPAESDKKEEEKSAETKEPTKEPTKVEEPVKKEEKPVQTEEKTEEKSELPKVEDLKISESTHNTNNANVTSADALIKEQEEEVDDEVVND

Row | Substance | IC50 of inhibition of NM fibrillization, no nucleotide [1] [nM] | IC50 of inhibition of NM fibrillization, with ADP [1] [nM] | IC50 of inhibition of NM fibrillization, with AMP-PNP [1] [nM] | IC50 of inhibition of NM fibrillization, with ATP hydrolysis [1] [nM] | fraction of seed-bound NM soluble in SDS [2] [%]
1 | Hsp104 (from UniProt P31539 1-908) (enzyme) | 7600 | 3100 | 200 | 100 | 
2 | NM^T158C-iodo[1-^14C]acetamide (soluble) (from UniProt P05453 1-253) |  |  |  |  | 50
